Laboratory results taken from patent US20050228169A1 (published 2005).

Target: T1, GST-syntaxin-1a (1-266AA) (human, UniProt P08515 1-218 = GST; Q16623 1-266)
T1 construct: Expressed in E. coli DH5a and purified on glutathione-Sepharose; also called GST-syntaxin-1a fused protein; syntaxin-1a-GST
Assay: GST pull-down: GST-syntaxin-1a (17 µg) on glutathione-Sepharose, 16 hours at 4° C.; Western blot with anti-penta His antibody
Procedure: KIAA1006 polypeptide (the histidine-tagged KIAA1006 polypeptide described above) and its C-terminal truncated product (the histidine-tagged C-terminal truncation product of KIAA1006 polypeptide described above) purified with a cobalt resin were respectively mixed with glutathione-Sepharose (bed volume 10 μl) to which GST (17 μg) was bound, stirred for 6 hours at 4° C., and then centrifuged. The obtained supernatants (GST-glutathione-Sepharose unadsorbed fractions) were respectively added to glutathione-Sepharose (bed volume 10 μl) to which GST-syntaxin-1a (17 μg) was bound, and after stirring for 16 hours at 4° C., the resultants were subjected to centrifugation. The fractions adsorbed to GST-glutathione-Sepharose and the fractions adsorbed to GST-syntaxin-1a-glutathione-Sepharose were eluted with SDS-PAGE sample buffer, respectively, and the binding of syntaxin-1a to KIAA1006 polypeptide or to its C-terminal truncation product was analyzed by Western blotting using anti-penta His antibody (Qiagen).
For the SDS-PAGE, 4-12% Bis-Tris Gel (NOVEX) was used. The detection of a secondary antibody that was labeled with horseradish peroxidase was carried out using ECL Western blotting detection reagents (Amersham Pharmacia Biotech).

T1 sequence (P08515 1-218, tags or fused parts left off): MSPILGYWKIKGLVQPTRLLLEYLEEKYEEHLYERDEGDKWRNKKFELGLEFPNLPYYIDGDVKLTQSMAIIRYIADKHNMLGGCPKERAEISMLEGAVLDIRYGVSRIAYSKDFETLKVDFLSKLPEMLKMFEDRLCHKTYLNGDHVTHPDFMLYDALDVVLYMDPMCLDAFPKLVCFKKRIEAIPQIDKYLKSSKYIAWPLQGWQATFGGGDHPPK

B1: histidine-tagged KIAA1006 C-terminal truncated polypeptide (1-1157AA) (other)
chain: HHHHHHMKKFNFRKVLDGLTASSPGSGSSSGSNSGGGAGSGSVHPAGTAGVLREEIQETLTSEYFQICKTVRHGFPHQPTALAFDPVQKILAIGTRTGAIRILGRPGVDCYCQHESGAAVLQLQFLINEGALVSASSDDTLHLWNLRQKRPAILHSLKFNRERITYCHLPFQSKWLYVGTERGNTHIVNIESFILSGYVIMWNKAIELSTKTHPGPVVHLSDSPRDEGKLLIGYENGTVVFWDLKSKRAELRVYYDEAIHSIDWHHEGKQFMCSHSDGSLTLWNLKSPSRPFQTTIPHGKSQREGRKSESCKPILKVEYKTCKNSEPFIIFSGGLSYDKACRRPSLTIMHGKAITVLEMDHPIVEFLTLCETPYPNEFQEPYAVVVLLEKDLIVVDLTQSNFPIFENPYPMDIHESPVTCTAYFADCPPDLILVLYSIGVKHKKQGYSNKEWPISGGAWNLGAQTYPEIIITGHADGSIKFWDASAITLQMLYKLKTSKVFEKQKVGEGKQTCEIVEEDPFAIQMIYWCPESRIFCVSGVSAYVIIYKFSRHEITTEIVSLEVRLQYDVEDIITPEPETSPPFPDLSAQLPSSRSLSGSTNTVASEGVTKDSIPCLNVKTRPVRMPPGYQAELVIQLVWVDGEPPQQITSLAVSSAYGIVAFGNCNGLAVVDFIQKTVLLSMGTIDLYRSSDLYQRQPRSPRKNKQFIADNFCMRGLSNFYPDLTKRIRTSYQSLTELNDSPVPLELERCKSPTSDHVNGHCTSPTSQSCSSGKRLSSADVSKVNRWGPGRPPFRKAQSAACMEISLPVTTEENRENSYNRSRSSSISSIDKDSKEAITALYFMDSFARKNDSTISPCLFVGTSLGMVLIISLNLPLADEQRFTEPVMVLPSGTFLSLKGAVLTFSCMDRMGGLMQPPYEVWRDPNNIDENEKSWRRKVVMNSSSASQEIGDHQYTIICSEKQAKVFSLPSQTCLYVHNITETSFILQANVVVMCSSACLACFCANGHIMIMSLPSLRPMLDVNYLPLTDMRIARTFCFTNEGQALYLVSPTEIQRLTYSQEMCDNLQDMLGDLFTPIETPEAQNRGFLKGLFGGSGQTFDREELFGEASAGKASRSLAQHIPGPGSIEGMKGAAGGVMGELTRARIALDERGQRLGELEEKT
notes: Expressed in sf9 insect cells by baculovirus and purified on cobalt resin; The junction of the tag is as noted for m1; also called C-terminal truncated product; C-terminal truncation product of KIAA1006 polypeptide
Does B1 bind?
Result: no binding
